In the supplement of paper PMC9170038:

Test system: MS2 coat protein
Test: apparent KD of MS2 coat protein; designed switch direction (-1 OFF switch, 1 ON switch): -1; higher = weaker reporter binding
Summary of the method: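 Designed RNA switches were transcribed on Illumina chips by stalled E. coli RNA polymerase and titrated with SNAP-549-labelled MS2 coat protein from 0.7 or 1.5 nM, doubling to 3 µM. Step length ran from 0.8–1.5 h at the lowest concentration to 10–20 min at the highest. The apparent KD is the median over clusters for each design, from curve-fitted normalised cluster fluorescence.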

[1] = Eterna round: R95, input ligand: FMN 200 uM
[2] = Eterna round: R95, input ligand: microRNA oligo, concentration not stated
[3] = Eterna round: R95, input ligand: none
[4] = input ligand: microRNA oligo, concentration not stated

## AAGUACCGUCACGAAAGUGAUGGUACAACAAGUAAAUGUACAUGAGGAUCACCCAUGUCCUCAAUUGCUCGUCUUAU [Sensor 3 - 60] (puzzle: Sensor v3, turn-off variant 2)
[1]
  apparent KD of MS2 coat protein: 722 nM
[2]
  apparent KD of MS2 coat protein: 202 nM
[3]
  apparent KD of MS2 coat protein: 745 nM

## AAUAACAGAGGAUAUACUGUUUUAUGUAUUUAUUAUUUUAAACAUGAGGAUCACCCAUGUAGAAGGCUGAAUGA [JMF 55] (puzzle: Exclusion 2)
[2]
  apparent KD of MS2 coat protein: 20.7 nM

## AAUAAUCAUGUAGGAUAUGCGUGGCGAAGCUAUGCAGAAGGACAUGAGGAUCACCCAUGUUCUAGCGUCUGCGUACAGAUGCUA [Mat - Exclusion NG 1 - Mod of JL - D79] (Eterna round: R96, puzzle: Exclusion NG 1)
Input ligand: FMN 200 uM
  apparent KD of MS2 coat protein: 123 nM
[4]
  apparent KD of MS2 coat protein: 36.6 nM
Input ligand: none
  apparent KD of MS2 coat protein: 37.1 nM

## AUCAUGUCAGGAUAUAUGACAUGGCUCUUCGGAGCAAGAUCAUAGAAGGGACAUGAGGAUCACCCAUGUAGAUC [Ex4-3: 23] (puzzle: Exclusion 4)
[1]
  apparent KD of MS2 coat protein: 41.9 nM
[2]
  apparent KD of MS2 coat protein: 195 nM
[3]
  apparent KD of MS2 coat protein: 188 nM

## GAAAGGUAAGGAUAUGCGACUACGGUGAGAUGGUUGACCUGACAUGAGGAUCACCCAUGUAGAAGGUGCUCAAU [Eternabot (L2) Solution 33] (Eterna round: R97, puzzle: Exclusion 2)
Input ligand: FMN 200 uM
  apparent KD of MS2 coat protein: 67.8 nM
Input ligand: none
  apparent KD of MS2 coat protein: 64.2 nM

## GUCACUAGAGGAUAUACAAUGGUAUAUGAUCCUAGAGACAAACAUGAGGAUCACCCAUGUAGAAGGCUAGUAUU [Exclusion 2 - 4] (puzzle: Exclusion 2)
[2]
  apparent KD of MS2 coat protein: 93.4 nM

## UAUGUUGUUGUGAGGAUAUACUUUGUUUGGUCGUAGUAGAAGGCACAUGAGGAUCACCCAUGUAGAUUUUUGGU [JR_BME4_Sub009] (puzzle: Brourd's mod of Exclusion 4)
[2]
  apparent KD of MS2 coat protein: 20 nM

## CUGCUGGAGCUUUGCUUUGGUCGUACAUGAGGAUCACCCAUGUAGGAUAUGGUAAAAUUUGCUUGCUAGAAGGAUAGAGUGGUC [salish99_ExNG3_r04_612] (Eterna round: R96, puzzle: Exclusion NG 3)
Input ligand: FMN 200 uM
  apparent KD of MS2 coat protein: 88.1 nM
[4]
  apparent KD of MS2 coat protein: 34.3 nM
Input ligand: none
  apparent KD of MS2 coat protein: 42.4 nM

## GAUUGACAUGAGGAUCACCCAUGUGAGGAUAUCGGCUGGACCGUGUUGGCUUCGGUUUCGAGAAGGCGCAUAGG [Exclusion 1 V45] (puzzle: Exclusion 1)
[1]
  apparent KD of MS2 coat protein: 52.9 nM
[2]
  apparent KD of MS2 coat protein: 90.1 nM
[3]
  apparent KD of MS2 coat protein: 102 nM

## AAACAAGCAACGAGAUCCCACAUGAGGAUCACCCAUGUCAACUGGAGUUUUAAAUCUUUAGGCUCGUUUUAUAACAA [S_tov1_V1.2] (Eterna round: R97, puzzle: Sensor, turn-off variant 1)
Input ligand: FMN 200 uM
  apparent KD of MS2 coat protein: 50.4 nM
Input ligand: none
  apparent KD of MS2 coat protein: 56.8 nM

## GCUGGUCAAGGAUAUACAUGAGGAUCACCCAUGUAGAUCAACCAGCGAUAGCUGGAAUGUAGAAGGUGACCAGC [E3/5-C1] (Eterna round: R97, puzzle: Exclusion 3)
Input ligand: FMN 200 uM
  apparent KD of MS2 coat protein: 48.4 nM
Input ligand: none
  apparent KD of MS2 coat protein: 15.5 nM

## AGUAGGUCUACCUUGGUGGAUCUGCAUUUAUGCAGGUGAACAUGAGGAUCACCCAUGUCCUCAUUUGCUCGUCUUAU [JL turnoff v2 99.28] (puzzle: Sensor v3, turn-off variant 2)
[1]
  apparent KD of MS2 coat protein: 55.3 nM
[2]
  apparent KD of MS2 coat protein: 539 nM
[3]
  apparent KD of MS2 coat protein: 61.5 nM

## CUAGGGCACAAUUAAACACCCUAACAUGAGGAUCACCCAUGUCAGGAUAUGUAGGCAAAGACCCUACAGAAGGGACAUGUCCUA [Laus] (Eterna round: R96, puzzle: Exclusion NG 3)
Input ligand: FMN 200 uM
  apparent KD of MS2 coat protein: 21.1 nM
[4]
  apparent KD of MS2 coat protein: 9.38 nM
Input ligand: none
  apparent KD of MS2 coat protein: 15.2 nM

## CUGAUUCUAGUAAGGAUAUCGGCGUGCACAGCAGCCGAGAAGGUACAUGAGGAUCACCCAUGUUGCUUCAACUU [Eternabot (Original) Solution 43] (Eterna round: R97, puzzle: Brourd's mod of Exclusion 4)
Input ligand: FMN 200 uM
  apparent KD of MS2 coat protein: 69.5 nM
Input ligand: none
  apparent KD of MS2 coat protein: 31.2 nM
